Measured values from US20200262914A1 (MIT, published 2020).

How the values were obtained:
[1] = target: T1, human Bcl-xL (residues 1-209) (human, UniProt Q07817 1-209); test: solution binding assays (competition FP)
T1 construct: range 1-209

[2] = target: T1, human Bcl-xL (residues 1-209); test: competition FP vs fluoresceinated Bim BH3, solution
Source text: (§1) We used the cell-surface experiments to select six peptides, for which we determined solution Ki values using a competition fluorescence polarization (FP) assay (FIG. 3, panel d).

[3] = target: T2, human Bfl-1 (residues 1-151) (human, UniProt Q16548 1-151); test: competition FP, solution
T2 construct: range 1-151
T2 sequence (looked up): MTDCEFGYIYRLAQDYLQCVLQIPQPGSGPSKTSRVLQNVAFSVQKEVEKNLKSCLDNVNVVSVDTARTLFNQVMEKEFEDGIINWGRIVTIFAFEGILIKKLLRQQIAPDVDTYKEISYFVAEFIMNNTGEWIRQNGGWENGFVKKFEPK
Source text: as §1

[4] = target: T3, human Mcl-1 (residues 172-327) (human, UniProt Q07820 172-327); test: competition FP, solution
T3 construct: range 172-327
Source text: as §1

[5] = target: T2, human Bfl-1 (residues 1-151); test: competition FP vs fluoresceinated Bim BH3, solution
Source text: as §1

[6] = target: T3, human Mcl-1 (residues 172-327); test: as above
Source text: as §1

[7] = target: T2, human Bfl-1 (residues 1-151); test: reported affinity; yeast cell-surface measurement presumed
[8] = target: T2, human Bfl-1 (residues 1-151); test: yeast display, sparse titration, apparent KD;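 further: designs displayed on the yeast cell surface, binding of soluble target protein measured at four concentrations spanning nanomolar to micromolar, apparent KD estimated from this sparse titration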
Procedure: We measured binding of the designs to 1, 10, 100 or 1000 nM of Bcl-xL, Mcl-1 and Bfl-1 using yeast cell-surface display.

T3 sequence (Q07820 172-327 limits assumed): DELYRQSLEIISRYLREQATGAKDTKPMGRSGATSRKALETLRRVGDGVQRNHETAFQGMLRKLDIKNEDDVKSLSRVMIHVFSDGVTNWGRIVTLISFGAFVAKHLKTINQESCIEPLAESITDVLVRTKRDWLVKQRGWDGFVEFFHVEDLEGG
T1 sequence (Q07817 1-209 limits assumed): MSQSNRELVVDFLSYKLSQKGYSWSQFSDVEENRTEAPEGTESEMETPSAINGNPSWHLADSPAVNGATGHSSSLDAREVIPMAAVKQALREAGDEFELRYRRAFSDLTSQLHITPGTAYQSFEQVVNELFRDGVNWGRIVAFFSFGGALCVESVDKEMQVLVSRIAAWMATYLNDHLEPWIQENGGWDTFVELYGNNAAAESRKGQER

B1: srt.X1 (peptide)
peptide: Ac-QTLIWYGASLRRYADEFAKQRER-NH2
notes: synthetic solution peptide; also called srt.X01
- fold specificity for target over off-targets [1]: > 1000 fold
- Ki [2]: 1.32 nM

B2: srt.MF02 (peptide)
peptide: Ac-RWIDQIAQFLRRIGDHIEKYIER-NH2
notes: synthetic solution peptide; also called MF2
- fold tighter Ki than to Bcl-xL [3]: > 100 fold
- fold tighter Ki than to Bcl-xL [4]: > 100 fold
- Ki [5]: 6.6 nM
- Ki [2]: 1000 nM
- Ki [6]: 9 nM

B3: srt.MF06 (peptide)
peptide: Ac-RRVDEIAQILRRIGDNVTTYIER-NH2
notes: synthetic solution peptide; also called MF6
- fold tighter Ki than to Bcl-xL [3]: > 100 fold
- fold tighter Ki than to Bcl-xL [4]: > 100 fold
- Ki [5]: 19 nM
- Ki [6]: 5.7 nM

B4: srt.X7 (peptide)
peptide: Ac-QPLIWFGAQLRRGADEFAAQRER-NH2
notes: synthetic solution peptide; also called srt.X07
- fold specificity for target over off-targets [1]: > 1000 fold
- Ki [2]: 3.7 nM

Binder: Ac-QWLRWVIAELIRIADEFHAQYER-NH2 (synthetic solution peptide) [srt.MX01]
- Ki [2]: 21 nM
- Ki [6]: 11 nM

Binder: Ac-QWLRDVVAELARIADEFHAQYER-NH2 (synthetic solution peptide) [srt.MX05]
- Ki [2]: 20 nM
- Ki [6]: 100 nM

Binder: GQRVVHIAAGLRRTGDQLEAYG [F4]
- Kd [7]: 14 nM
- Kd [8]: < 100 nM

Binder: GRRVVQIAAGLRRAGDQLEKYG [F10]
- Kd [7]: 3.2 nM
- Kd [8]: < 100 nM
